# According to a protein production outcome set (Wang et al. 2014):
# Experiment: label from the status in PepcDB records
row,Sequence,protein production
1,MSSMVEVEHWNTLRLRIYIGENDKWEGRPLYKVIVEKLREMGIAGATVYRGIYGFGKKSRVHSSDVIRLSTDLPIIVEVVDRGHNIEKVVNVIKPMIKDGMITVEPTIVLWVGTQEEIKKFEEDAIAERQ,not failed
2,MAQISQLSAVILAGGLARRMNGNEKGLCLLHQQPLISHILARLTPQVCTIYFNINRSFATYQQLYPQLTYYSDKIADFQGPLSGILSGFEKIDSEYLLFVPCDTPFLPKNLVTKLTNSLIMNEATIAYAHDGEQAHPTIALIHRSITPALASYLASGERRLYHFFKTQKSIAVDFSDQKNAFQNFNSLADLEQFSTISATRVDQSRLLGITGYSGTGKTTLLEKLIPILTANGIKVGLIKHSHHNVDIDKNGKDSHRLRTAGANPTIIVCQQRWALMTETPQQAVDFQQLITKFDPESVDLILVEGFKDEQFAKIQLHRQVIKKPLPELDEWTIATATDYPIARPNLLDINQIDKIADFIQQWLNN,failed
3,MGKVILVTGVSRGIGKSIVDVLFSLDKDTVVYGVARSEAPLKKLKEKYGDRFFYVVGDITEDSVLKQLVNAAVKGHGKIDSLVANAGVLEPVQNVNEIDVNAWKKLYDINFFSIVSLVGIALPELKKTNGNVVFVSSDACNMYFSSWGAYGSSKAALNHFAMTLANEERQVKAIAVAPGIVDTDMQVNIRENVGPSSMSAEQLKMFRGLKENNQLLDSSVPATVYAKLALHGIPDGVNGQYLSYNDPALADFMP,not failed
4,MAQTDKHYFGTLLAQTSRAWRAELDRRLSHLGLSQARWLVLLHLARHRDSPTQRELAQSVGVEGPTLARLLDGLESQGLVRRLAVAEDRRAKHIVLTPKADVLIADIEAIAASVRNDVLTGIDESEQALCQQVLLRILANLENR,not failed
5,MNSRMKIKKAYEYMKSFHQHDTTGHDIAHVERVYNNACYIAKRENITDTLVIELSSLLHDTVDSKLTDEILAYDQLKQFLSTLDLSSEISQQVLYIIKHMSYRAGKNNHVKLSIDGEIVRDADRLDAIGAIGIARTFQFSGHFGEPMWTETKLSNEELHTSLVEELDNSAIKHFYEKLFKLKDLMHTPTAKKLAEERHQFMIQYLKQFMSEWNFNKELEHHHHHH,not failed
6,MSSIKIECVLPENCRCGESPVWEEVSNSLLFVDIPAKKVCRWDSFTKQVQRVTMDAPVSSVALRQSGGYVATIGTKFCALNWKEQSAVVLATVDNDKKNNRFNDGKVDPAGRYFAGTMAEETAPAVLERHQGALYSLFPDHHVKKYFDQVDISNGLDWSLDHKIFYYIDSLSYSVDAFDYDLQTGQISNRRSVYKLEKEEQIPDGMCIDAEGKLWVACYNGGRVIRLDPVTGKRLQTVKLPVDKTTSCCFGGKNYSEMYVTCARDGMDPEGLLRQPEAGGIFKITGLGVKGIAPYSYAG,failed
7,MSGQTFEKIGGMFLDKQRKEGKSKATLDKTAYHLKLANHDFGKKPITAITAPMILRTLRKVEAKGNYETAHRLRARIGSVFRYAVASGLAETDPTYALRDALIRPTRQHLEHHHHHH,failed
8,MELRPSGDSGSSDVDAEISDGFSPLDTSHRDVADEGSLLRRAEMYQDYMKQVPIPTNRGSLIPFTSWVGLSISMKQLYGQPLHYLTNVLLQRWDQSRFGTDSEEQRLDSIIHPTKAEATIWLVEEIHRLTPSHLHMALLWRSDPMYHSFIDPIFPEK,not failed
9,MKTNEVLETIKARRSVRAYDRKQIPADDLNAILEAGAYAPSGMHYETWHFTAVCNTVKLEELNERIKGAFAKSDDKHLRERGHSETYCCYYHAPTLVIVSNEPKQWWAGMDCACAIENMFLAATSLGIASCWINQLGTTCDDPEVRAYLTSLGVPENHKVYGCVALGYKAEGALLKEKTVKAGTITIVE,not failed
10,MMLGPEGGEGYVVKLRGLPWSCSIEDVQNFLSDCTIHDGVAGVHFIYTREGRQSGEAFVELESEDDVKLALKKDRESMGHRYIEVFKSHRTEMDWVLKHSGPNSA,not failed
11,MIEGKTLVVNPFIGGSAKNITDEQYISILKKIKEKMPDLNIIITSYTTDEERTEKLCKDIGKDKIFAFSNGASILNTASIIDRADVYFGASTGPTHIAGALGKKIVAIYPHKKTQSPTRWGVLGNSNVRYIIPDENNPNEDYKLEHHHHHH,failed
12,DSKDLALCSMILTEMETHEDAWPFLLPVNLKLVPGYKKVIKKPMDFSTIREKLSSGQYPNLETFALDVRLVFDNCETFNEDDSDIGRAGHNMRKYFEKKWTDTFK,not failed
13,MFKITPFSTQQHVIIQITDTHLLEDPQQEFVGINPERSFHCVMQHIRQHHAQIDAIIHTGDLAQTPTPATYARYLDFMQSFGVPFFHVPGNHDHPEFFPFHQASPSELSIVVLGNWHVILMNSAVVGQVDGWINDQQIQQLRDHLAAHPDTPTIVACHHHPFDMHSKWIDQHKLKNTPDLLATFKHYPQIRAVLCGHVHQESLHRWEHIDFLSSPSTSVQFKPRSDEFAFDTLPSGYRILRLNSDGQFDSNIHRIENMLQNINTEISGY,failed
14,MNEVKSLTTAEGPTKLLNLQLKDLGDSLIDVALWGKLAEDVYSNIKSQPSGPVFSSWKFDEDFAISRHSSKLKIYNKSLYPFSTTRDSSVSRSFNCFGETPQELLDLGGRNYVFKIMVKHEAKHNQSSTYKMISLTDVLNVIQSFFESASTLNDIEQEIITVSGNSVGTSIGTTTQAEINFVDVDNLDNNEDNAYYISTPKPITKRFLATSKHVQQSSTKP,not failed
15,MTSVRGIAPLPSKKSSDRQKRLAMSTFERYLTLWVALCIVVGIGLGHLMPGAFQVIGAAEIAKVNLPVAALIWLMIIPMLVRIDFAALGRVREHWRGIGVTLFINWAVKPFSMAALAWLFVGYLFRPYLPADQINSYIAGLIILAAAPCTAMVFVWSNLTKGEPHFTLSQVALNDTIMVFAFAPIVGLLLGLSAITVPWDTLVLSVVLYIVVPVIIAQGLRRWALASGGEAQLQRLLGIFQPLSLVALLATLVLLFGFQGEQIIRQPLVIALLAVPILIQVYFNAGLAYLLNRLSGEQHCVAGPSALIGASNFFELAVAAAISLFGFESGAALATVVGVLIEVPVMLTVVAIVNRSKRWYEADQRAPVARTPG,failed
16,MAGGLGKCSKIRHIVRLRQMLRRWRDQARMSSSFSRCVPSDVPSGHVAVYVGSSCRRFVVRATYLNHPVLRNLLVQAEEEFGFVNQGPLVIPCEESVFEESIRFISRSDSTRSRRFTCPDDFQKNCHVVGIRSKLDLWIESRPLLHGVTEKAVW,failed
17,MTWCSLSVISCTRFYSRQRTAMLNSLKQEKFLLLALLAAVAAYPLEHLLLGSGQGIALGAGLVLIGFIVMASMRVAHHAELLAEKVGDPYGTMILTLAAVLVEVVILAIMMSNEASPTLVRDTIYSAVMLDINGILGLAALMGGIKHGEQPYNDDSARTYSVMILTAMGVSMVVPEFIPEADWKVYSAFTIGAMVVLYTLFLRMQVGPHSYFFSYSYPEKRRNKEAQEQPHAINLAWSIGILVFGVVVIGALAEVMSKTLDLGLEGTGAPPVITAILVAAISAAPEILTALRAALANRMQSVVNVALGASLSTVILTVPVMEAMALYTGQPFQMAMTPVQTVMVFITLIVSAINLNDGETNAIEGMTHFVLFATFIMLSLLGL,failed
18,MNKTMAKSLSVIIPACNEVDTISDVIQSVRPLNPVEIIVVANGCNDGTEDVADRLGCKVIKHTELLGNDVGRAVGAKHAIGDVLLFIDGDFAIPTSKLKLFLNPILYDQADVVLNNLDALFLKRQKTTSITVWRQILNAMLEREELKMNSLLDVPHALTKEVVQSIGYECFVNPIVAHLRLVQSKWRISRHCAIDVITPNKFRPFQHAAYGTNLSQSEKRMIGDHIEAVAERILSSDERGGYYDGNRKRDSVYHTLSFEEFYQGWGVTSDFYKGKQLSVVIPVQDEEKTIGNVIEELRKIEPFEIIVVVNGSSDKTKKIAKDKGATTIVYKEALGNDVGRSLGTYFAKGEIVLFIDGDFVIPASELYPFAKAIADGTDVALNDLNHYLDLRVPLHLVTAFKYALNLACDRKDLGVGSLIAVPNAFSRKCLKEIGYRSLLAPCVAQVKAILSGFEVACVSRVEVDKMNRIRPSEHFAKIGHPPAVLRIIGDHIEGLDQIIALTDNRGGFYDGNRKRDVLLEHHHHHH,failed
19,MNHYFRAIGSMLILVYSTFFAIFFIDKVFVNIMYFQGMFYTQIFGIPVLLFLNLMVILLCIIVGSVLAYKINQQNHWLKDQIERSIEGQTVGINDQNIELYNETIELYQTLVPLNQEVHKLRMKTQNLTNESYNINDVKVKKIIEDERQRLARELHDSVSQQLFAASMMLSAIKETELKAPLDQQIPVLEKMIQDSQLEMRALLLHLRPIGLKDKSLGEGIKDLVVDLQKKVPMKVVHDIEEFKVPKGIEDHLFRITQEAISNTLRHSKGTKVTIELFNREEYLLLRIQDNGKGFNVDDKVEQSYGLKNMRERALEIGATFHIVSLPDAGTRIEVKAPLNKEDSNAD,failed
20,MRIYLFLNKNYKIFILFLILILNSKLAYSQRLIRIGKEEMKNKNYIQAIETLSDAIKKYPKVQLGYYFLSIAYRENNQLTEAEGALLDGIAVGGEIDYILYYELGNIMFNRGEGYYPLAIKYYSNSIKSRPNYDSALLNRANAYVQQGKITSKEKEYQKAWDSYTMAIHDYSQFITLRSKTEKKDSILLIISYLRNEKINLEQLDKSLKGRTEHIVYAKEDKNQILKDSFKDNLETNSLIELEKLNWQEELYIDE,failed
21,MYQVIIFALLFAGISSGFITFRIMGMRMAPHFGVLILALIATAANIMSGNVTLNYVAVALQVLTGISAYTQFLPVLRDSFQTAPLYACHLSTVTVAAVLAAASVPL,failed
22,MAPLRTKAVEVLQRNSRGAFTVPAHGLYPYQWLWDSAFIALGWTQVDWERAWQELLCLFDYGQGPDGMLPHIVFHEQSRDYFPGPDVWGREARAQPATSGITQPPVVATVVRYLYEKDPDRDRARERARYLFPKLLAFHRWLYHARDPYRTGLVVIVHPWESGMDNSPAWDKPLSRVPVENLPPYERRDVKHVNPEERPRKEDYDRYLSLLYLFRRLEYDPREIYRQSPFKVVDVGFNAILQRANRDLYALAVLLQEDPYEIEEWIVRGEVGLEALWDREAGFYFSWDLVAGEPIAVKTSAGFLPLFAGTPHQGRASLLAQEAERWGEKARYLLPSVDPTSPFFEPGRYWRGPVWINVNWMVAEGFRDYGFAALAARLKADALALMEREGFREYYDPLTGQGRGGEGFSWSAALALFWTR,not failed
23,MVRTRLFGTFPHLSRSAQAQRNMTTTYANADPGELEKFSELAHRWWDPNSEFKPLHEINPLRLDWIQSTAPLAGKRVVDVGCGGGILSESMARAGANVKGIDLSRKALRVADLHSLEAGVAVDYEEIAAEALAAREPGSFDVVTCMEMLEHVPDPASVVRACATLVKPGGHVFFSTIHRNAKAYLLAVIGAEYVLNMLPRGTHDYAKFIRPSELAGFARTAGLEPAQLRGLEYNPLTGRYALTHDTSVNYLIATRRPDAP,failed
24,MEPQEEFITTEEVEQEIVPTVEVEQDVPVDIEGENDDDDEMMNDDEEALEVDMSNNSLTYFDKHTDSVFAIGHHPNLPLVCTGGGDNLAHLWTSHSQPPKFAGTLTGYGESVISCSFTSEGGFLVTADMSGKVLVHMGQKGGAQWKLASQMQEVEEIVWLKTHPTIARTFAFGATDGSVWCYQINEQDGSLEQLMSGFVHQQDCSMGEFINTDKGENTLELVTCSLDSTIVAWNCFTGQQLFKITQAEIKGLEAPWISLSLAPETLTKGNSGVVACGSNNGLLAVINCNNGGAILHLSTVIELKPEQDELDASIESISWSSKFSLMAIGLVCGEILLYDTSAWRVRHKFVLEDSVTKLMFDNDDLFASCINGKVYQFNARTGQEKFVCVGHNMGVLDFILLHPVANTGTEQKRKVITAGDEGVSLVFEVPN,failed
25,ERRGFSAEDFKTFHPGGKLGSQLLLAHELAHSGEAVPLLPIGSPMSEAVIQMSSKGFGVVGVVGGDGELVGVITDGDLRRHMSQSLLLLTVETVMSHMPRVITPGMLASAAMEMMQSQKITVLFLVDDVGRPSGILHVHDLLRA,failed
